Target: PROTEOLYSIS1 (PRT1) (Arabidopsis thaliana) (UniProt Q8LBL5)
Sequence (Q8LBL5 whole entry): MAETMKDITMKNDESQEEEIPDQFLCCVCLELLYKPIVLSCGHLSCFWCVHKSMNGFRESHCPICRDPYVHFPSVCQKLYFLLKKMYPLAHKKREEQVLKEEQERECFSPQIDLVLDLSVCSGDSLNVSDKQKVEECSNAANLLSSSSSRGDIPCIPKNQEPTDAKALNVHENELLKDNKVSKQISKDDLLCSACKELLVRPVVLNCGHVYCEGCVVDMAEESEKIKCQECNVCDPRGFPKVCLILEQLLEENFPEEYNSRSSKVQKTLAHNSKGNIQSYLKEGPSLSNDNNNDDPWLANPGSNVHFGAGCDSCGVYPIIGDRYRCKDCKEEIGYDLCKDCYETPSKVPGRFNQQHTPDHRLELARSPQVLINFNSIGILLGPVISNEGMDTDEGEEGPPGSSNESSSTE

Chain of E2-conjugating enzyme UBC8 (P35131 whole entry): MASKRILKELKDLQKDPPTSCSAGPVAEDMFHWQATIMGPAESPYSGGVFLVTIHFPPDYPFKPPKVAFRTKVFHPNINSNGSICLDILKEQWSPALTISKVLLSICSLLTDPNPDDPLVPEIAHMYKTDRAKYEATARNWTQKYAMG

Michaelis-Menten constant (K M) of substrate ubiquitination by PRT1 at different E2 concentrations (fluorescence polarization of the F-eK-Flv-NBD substrate, UBC8 up to 2 μM): 0.08 µM
Substance: E2-conjugating enzyme UBC8 (from UniProt P35131 1-148)
